{
  "source": "patent US20220098591",
  "about": "“STEM-LOOP COMPOSITIONS AND METHODS FOR INHIBITING VASCULAR ENDOTHELIAL GROWTN FACTOR” (DRIVE THERAPEUTICS LLC, published 2022)",
  "binders": {"B1": {"name": "Aptamer 141 (ssRNA)", "RNA": "AGGCCGACCCGCGCGGAGGGGUUUCAUUAUCCCGUUUGUCGGCUU", "modifications": "all G 2'-F; A,C,U 2'-OMe; Sp3 joins the two parts (position 9); 5' C6NH2; 3' idT"}, "B2": {"name": "Aptamer 26 (ssRNA)", "RNA": "UAGGCCGCCUCCGCGCGGAGGGGUUUCAUUAUCCCGUUUGGCGGCUUU", "modifications": "all G 2'-F; all A,C,U 2'-OMe; 5' C6NH2; 3' idT (Tables 14-16 print it without the terminal U residues)"}},
  "key": {"VEGF-A121 [1]": {"molecular_target": "T1, VEGF-A121 (Homo sapiens, UniProt P15692 SEQ:1-121)", "experiment": "competition; TR-FRET; stem S3 mispaired", "details": "tags: glycan-biotinylated for SPR/FRET/AlphaLISA; Acro BioSystems, Biolegend; chain copies: 2 (stated)", "procedure": "(§1) Briefly, for competition TR-FRET, 2-fold dilutions of thermally equilibrated aptamers were made in TR-FRET Buffer (50 mM MOPS, pH 7.4, 125 mM NaCl, 5 mM KCl, 50 μM CHAPS, 0.1 mg/mL BSA, 1 mM CaCl₂, and 1 mM MgCl₂). 5 μL of aptamer or control solution was added to a 15 μL mix of glycan biotinylated […] (5 nM final), ALEXA FLUOR® 647-labeled Aptamer (30 nM final), and Streptavidin-Eu (Perkin Elmer; 2.5 nM final) in a black wall low volume 384 well plate (Greiner). For control, 5 μl of 1000-fold excess of unlabeled parent aptamer or 5 μl TR-FRET buffer alone was added to the mix of ALEXA FLUOR® 647-labeled aptamer, biotin-VEGF-A, and Streptavidin-Eu. The plate was covered with a plate seal and subsequently incubated in the dark for 1 hour at room temperature. The plate was read on a Biotek CYTATION™ 5 plate reader. Samples were excited at 330 nm and fluorescent values were collected at 665 nm. Data analysis was performed by subtracting the background value and plotting as percent inhibition, normalized to baseline in the absence of competitor. The values were fit by [Inhibitor] vs. response-Variable slope (four parameters) using GraphPad Prism Version 7.0 and then normalized to aptamer control to obtain an IC₅₀ relative to parent aptamer. Data is presented as log values of relative IC₅₀. […]"}, "VEGF-A165 [2]": {"molecular_target": "T2, VEGF-A165 (Homo sapiens)", "T2 chain": "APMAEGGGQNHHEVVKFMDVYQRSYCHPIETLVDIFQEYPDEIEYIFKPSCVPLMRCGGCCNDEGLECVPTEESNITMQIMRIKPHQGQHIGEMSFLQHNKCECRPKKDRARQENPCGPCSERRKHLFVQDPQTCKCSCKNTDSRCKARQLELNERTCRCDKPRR", "experiment": "SPR; HBD-binding aptamer", "details": "tags: glycan-biotinylated for SPR/FRET/AlphaLISA; Acro BioSystems, R&D Systems; chain copies: 2 (inferred)", "procedure": "(§2) Aptamer 26 was identical in sequence to Aptamer 4.2 but contained a hexylamine linker in place of the C6 disulfide linker at the 5′ terminus. […] Briefly, in the SPR studies, 1.0-2.5 μg/mL of glycan biotinylated VEGF-A₁₆₅, VEGF-A₁₂₁, and VEGF-A₁₁₀ were diluted in HEPES running buffer (10 mM HEPES, 137.5 mM NaCl, 5.7 mM KCl, 1 mM MgCl₂, 1 mM CaCl₂, and 0.05% Tween20; pH 7.4) and immobilized to a streptavidin dextran chip (GE Healthcare Life Sciences) for 1-2 minutes. The chip was then blocked with 0.2 mg/mL biotin in running buffer, followed by 3 cycles of buffer blanks and regenerated with 50 mM NaOH to equilibrate the chip. […] After coating and blocking, samples were screened at 100 nM in duplicate injections at a flow rate of 25 μL/min, with an association time of 3 minutes 20 seconds and a dissociation time of 10 minutes. Regeneration conditions of chips were optimized based on the protein immobilized and effected with either 50 mM NaOH for 30 seconds or 2M guanidine HCl for 2×40 seconds.\n(§3) Data was fit to a 1:1 kinetic binding model."}, "VEGF-A165 [3]": {"molecular_target": "T2, VEGF-A165", "experiment": "cell_activity; partial (~80%) inhibition of KDR phosphorylation; no inhibition of KDR binding in AlphaLISA", "details": "tags: glycan-biotinylated for SPR/FRET/AlphaLISA; Acro BioSystems, R&D Systems; chain copies: 2 (inferred)", "procedure": "Briefly, HEK293 cells engineered to stably overexpress KDR were plated overnight in collagen coated 96 well plates at 50 k cells/well. Aptamers in SB1+ (40 mM HEPES, pH 7.5, 125 mM NaCl, 5 mM KCl, 1 mM MgCl₂) were heated to 90° C. for 3 minutes and allowed to cool to room temperature for a minimum of 10 minutes. […] 15 μL of VEGF-A was added to 15 μL titrated aptamer in a polypropylene plate and diluted to 300 μL with TS buffer (10 mM Tris pH 7.5; 100 mM NaCl; 5.7 mM KCl; 1 mM MgCl₂; 1 mM CaCl₂). The aptamer/VEGF-A mixture was incubated at 37° C. for 30 minutes, after which 100 μL was added to the cells for 5 minutes at 37° C. in 5% CO₂. Treatments were aspirated from cells, and cells were lysed with 100 μL cold lysis buffer [20 mM Tris-HCl, pH 7.5, 150 mM NaCl, 1 mM EDTA, 1% Triton X-100, 0.5 mM sodium orthovanadate (freshly prepared), 1 mM PMSF (freshly prepared), lx protease inhibitor cocktail (freshly prepared)] on ice for 10 minutes. […]\nTo perform the AlphaLISA® assay, 10 μL of cell lysis was transferred to a white low volume 384 well Optiplate (Perkin Elmer). […] The assay plate was sealed and incubated in the dark for approximately 2 hours, then was read on a Biotek CYTATION™ 5 plate reader using the Alpha 384 well optical cube. Percent inhibition was calculated by subtracting TS buffer background from each value and normalizing to VEGF-A only controls. […]"}, "VEGF-A110 [4]": {"molecular_target": "T3, VEGF-A110 (Homo sapiens, UniProt P15692 SEQ:1-110)", "experiment": "SPR; no binding at highest concentration (500 nM)", "details": "tags: glycan-biotinylated; chain copies: 2 (stated)", "procedure": "as §2, §3"}, "VEGF-A121 [5]": {"molecular_target": "T1, VEGF-A121", "experiment": "SPR; no binding at highest concentration (500 nM)", "details": "tags: glycan-biotinylated for SPR/FRET/AlphaLISA; Acro BioSystems, Biolegend; chain copies: 2 (stated)", "procedure": "as §2, §3"}, "VEGF-A121 [6]": {"molecular_target": "T1, VEGF-A121", "experiment": "competition; AlphaLISA, blocks KDR binding", "details": "tags: glycan-biotinylated for SPR/FRET/AlphaLISA; Acro BioSystems, Biolegend; chain copies: 2 (stated); stem-loop"}, "VEGF-A121 [7]": {"molecular_target": "T1, VEGF-A121", "experiment": "direct TR-FRET, RT", "details": "tags: glycan-biotinylated for SPR/FRET/AlphaLISA; Acro BioSystems, Biolegend; chain copies: 2 (stated); stem-loop", "procedure": "(§4) Briefly, ALEXA FLUOR® 647-labeled aptamers were heated to 90° C. for 3 minutes and cooled to room temperature. Titrations of ALEXA FLUOR® 647-labeled aptamers and ALEXA FLUOR® 647-labeled anti-VEGF-A antibody were made in TR-FRET buffer (50 mM MOPS, pH 7.4, 125 mM NaCl, 5 mM KCl, 50 μM CHAPS, 0.1 mg/mL BSA, 1 mM CaCl₂, and 1 mM MgCl₂) in a polypropylene plate. 5 μL of aptamers or antibody were transferred to the black wall low volume 384 well assay plate (Greiner), followed by 5 μL glycan biotinylated VEGF-A₁₂₁ (2.5 nM final), and 5 μL Streptavidin-Eu (Perkin Elmer; 2.5 nM final). The plate was covered with a plate seal and subsequently incubated in the dark for 2 hours at room temperature. The plate was read on a Biotek CYTATION™ 5 plate reader. Samples were excited at 330 nm and fluorescent values were collected at 665 nm.\n(§5) No protein background fluorescent values were averaged and subtracted from test compounds, with data normalized as a fold change to highest concentrations of aptamers and antibody. These values were fit using a four-parameter non-linear fit in GraphPad Prism Version 7.0."}, "VEGF-A165 [8]": {"molecular_target": "T2, VEGF-A165", "experiment": "competition; AlphaLISA, blocks KDR binding; limited by VEGF-A concentration", "details": "tags: glycan-biotinylated for SPR/FRET/AlphaLISA; Acro BioSystems, R&D Systems; chain copies: 2 (inferred); stem-loop"}, "VEGF-A165 [9]": {"molecular_target": "T2, VEGF-A165", "experiment": "direct TR-FRET, RT; limited by VEGF-A concentration", "details": "tags: glycan-biotinylated for SPR/FRET/AlphaLISA; Acro BioSystems, R&D Systems; chain copies: 2 (inferred); stem-loop"}, "VEGF-A165 [10]": {"molecular_target": "T2, VEGF-A165", "experiment": "competition; AlphaLISA, blocks KDR binding", "details": "tags: glycan-biotinylated for SPR/FRET/AlphaLISA; Acro BioSystems, R&D Systems; chain copies: 2 (inferred); stem-loop", "protocol": "Briefly, the aptamers were heated at 90° C. for 3 minutes and allowed to cool to room temperature for a minimum of 10 minutes. Aptamers and anti-VEGF-A antibody were serial diluted in a polypropylene plate and 5 μL was transferred to a white low volume 384 well Optiplate (Perkin Elmer). A solution of VEGF-A₁₆₅ (Acro BioSystems) or VEGF-A₁₂₁ (Acro BioSystems) that was glycan biotinylated was prepared and added to the assay plate containing aptamers or anti-VEGF-A antibody to yield a final assay concentration of 2 nM. A mixture of human recombinant his-tagged KDR, (Sino Biological), AlphaLISA® nickel chelate acceptor beads (Perkin Elmer), and AlphaScreen® streptavidin donor beads (Perkin Elmer) was then prepared and 10 μL was added to the assay plate. The final concentrations of KDR and beads were 5 nM and 5 ug/mL, respectively. The assay plate was sealed and incubated in the dark for approximately 2 hours, after which it was read on a Biotek CYTATION™ 5 plate reader using the Alpha 384 well optical cube. The low signal control was determined using excess anti-VEGF-A inhibitor and the high signal control was determined by buffer only.\nThe mechanism of action of lead aptamers was characterized by interrogating their ability to inhibit the VEGF-A:KDR interaction with both VEGF-A₁₆₅ and VEGF-A₁₂₁."}, "VEGF-A165 [11]": {"molecular_target": "T2, VEGF-A165", "experiment": "SPR; HEPES pH 7.4, 137.5 mM NaCl, 1 mM MgCl2, 1 mM CaCl2", "details": "tags: glycan-biotinylated for SPR/FRET/AlphaLISA; Acro BioSystems, R&D Systems; chain copies: 2 (inferred); stem-loop", "procedure": "as §2, §3"}, "VEGF-A165 [12]": {"molecular_target": "T2, VEGF-A165", "experiment": "direct TR-FRET, MOPS pH 7.4, 1 mM CaCl2, 1 mM MgCl2, RT", "details": "tags: glycan-biotinylated for SPR/FRET/AlphaLISA; Acro BioSystems, R&D Systems; chain copies: 2 (inferred); stem-loop"}, "VEGF-A110 [13]": {"molecular_target": "T3, VEGF-A110", "experiment": "SPR; HEPES pH 7.4, 1 mM MgCl2, 1 mM CaCl2", "details": "tags: glycan-biotinylated; chain copies: 2 (stated); stem-loop", "procedure": "as §2, §3"}, "VEGF-A121 [14]": {"molecular_target": "T1, VEGF-A121", "experiment": "SPR; HEPES pH 7.4, 1 mM MgCl2, 1 mM CaCl2", "details": "tags: glycan-biotinylated for SPR/FRET/AlphaLISA; Acro BioSystems, Biolegend; chain copies: 2 (stated); stem-loop", "procedure": "as §2, §3"}, "VEGF-A121 [15]": {"molecular_target": "T1, VEGF-A121", "experiment": "direct TR-FRET, RT; error not given", "details": "tags: glycan-biotinylated for SPR/FRET/AlphaLISA; Acro BioSystems, Biolegend; chain copies: 2 (stated); stem-loop", "procedure": "as §4, §5"}, "VEGF-A121 [16]": {"molecular_target": "T1, VEGF-A121", "experiment": "competition; TR-FRET; also no pKDR inhibition at 100 nM", "details": "tags: glycan-biotinylated for SPR/FRET/AlphaLISA; Acro BioSystems, Biolegend; chain copies: 2 (stated)", "procedure": "as §1"}},
  "data": [
    {"binder": "AGGCCGCCUCCGCGCGGAGCCGUUUCAUUAUCCCGUUUGGCGGCUU (ssRNA, all G 2'-F; A,C,U 2'-OMe; 5' C6NH2; 3' idT)", "note": "[Aptamer 184]", "values": [
      {"measurement": "binding signal", "setting": "VEGF-A121 [1]", "value": "> 100 fold worse IC50 vs Aptamer 26"}
    ]},
    {"binder": "AGGCCGCCUCCGCGCGGAGGGGUUUCAUUAUAACGUUUGGCGGCUU (ssRNA, all G 2'-F; A,C,U 2'-OMe; 5' C6NH2; 3' idT)", "note": "[Aptamer 185]", "values": [
      {"measurement": "binding signal", "setting": "VEGF-A121 [1]", "value": "> 100 fold worse IC50 vs Aptamer 26"}
    ]},
    {"binder": "CGGAAUCAGUGAAUGCUUAUACAUCCG (ssRNA, 2'-F C and U; 2'-OMe G and A except AA at positions 4-5; 5' C6NH2; 3' idT)", "note": "[Aptamer 7]", "values": [
      {"measurement": "Kd", "setting": "VEGF-A165 [2]", "value": 0.6, "unit": "nM"},
      {"measurement": "IC50", "setting": "VEGF-A165 [3]", "value": 2.2, "unit": "nM"},
      {"measurement": "binding result", "setting": "VEGF-A110 [4]", "value": "no binding"},
      {"measurement": "binding result", "setting": "VEGF-A121 [5]", "value": "no binding"}
    ]},
    {"binder": "B1", "values": [
      {"measurement": "IC50", "setting": "VEGF-A121 [6]", "value": 3.2, "unit": "nM"},
      {"measurement": "Kd", "setting": "VEGF-A121 [7]", "value": 4.3, "unit": "nM"},
      {"measurement": "IC50", "setting": "VEGF-A165 [8]", "value": 0.81, "unit": "nM"},
      {"measurement": "Kd", "setting": "VEGF-A165 [9]", "value": 1.2, "unit": "nM"}
    ]},
    {"binder": "B2", "values": [
      {"measurement": "IC50", "setting": "VEGF-A165 [10]", "value": 3.7, "unit": "nM"},
      {"measurement": "IC50", "setting": "VEGF-A121 [6]", "value": 19, "unit": "nM"},
      {"measurement": "Kd", "setting": "VEGF-A165 [11]", "value": 0.5, "unit": "nM"},
      {"measurement": "Kd", "setting": "VEGF-A165 [12]", "value": 4, "unit": "nM"},
      {"measurement": "Kd", "setting": "VEGF-A110 [13]", "value": 9.9, "unit": "nM"},
      {"measurement": "Kd", "setting": "VEGF-A121 [14]", "value": 4.6, "unit": "nM"},
      {"measurement": "Kd", "setting": "VEGF-A121 [15]", "value": 46, "unit": "nM"}
    ]},
    {"binder": "UAGGCCGCCUCCGCGCGGGGGGGUUUCAUUAUCCCGUUUGGCGGCUUU (ssRNA, all G 2'-F; A,C,U 2'-OMe; 5' C6NH2; 3' idT)", "note": "[Aptamer 27]", "values": [
      {"measurement": "binding signal", "setting": "VEGF-A121 [16]", "value": "> 100 fold worse IC50 vs Aptamer 26"}
    ]}
  ]
}
